Test results from patent publication US20210101970A1 (Pfizer, published 2021).

T1: human CXCR5 (human, UniProt P32302 1-372)
T1 sequence: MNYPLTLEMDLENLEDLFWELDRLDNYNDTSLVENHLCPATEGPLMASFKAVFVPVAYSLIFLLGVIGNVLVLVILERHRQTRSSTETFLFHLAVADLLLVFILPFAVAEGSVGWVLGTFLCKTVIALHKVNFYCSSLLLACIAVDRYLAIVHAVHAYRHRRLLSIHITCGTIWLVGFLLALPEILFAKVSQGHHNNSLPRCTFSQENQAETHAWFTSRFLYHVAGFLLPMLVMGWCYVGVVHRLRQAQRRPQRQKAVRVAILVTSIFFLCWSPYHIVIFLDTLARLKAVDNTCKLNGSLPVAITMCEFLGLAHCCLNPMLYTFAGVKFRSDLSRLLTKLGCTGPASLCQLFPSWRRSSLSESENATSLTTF

T2: cynomolgus monkey CXCR5 (cynomolgus monkey, UniProt P32302 1-372 (human entry))
T2 chain: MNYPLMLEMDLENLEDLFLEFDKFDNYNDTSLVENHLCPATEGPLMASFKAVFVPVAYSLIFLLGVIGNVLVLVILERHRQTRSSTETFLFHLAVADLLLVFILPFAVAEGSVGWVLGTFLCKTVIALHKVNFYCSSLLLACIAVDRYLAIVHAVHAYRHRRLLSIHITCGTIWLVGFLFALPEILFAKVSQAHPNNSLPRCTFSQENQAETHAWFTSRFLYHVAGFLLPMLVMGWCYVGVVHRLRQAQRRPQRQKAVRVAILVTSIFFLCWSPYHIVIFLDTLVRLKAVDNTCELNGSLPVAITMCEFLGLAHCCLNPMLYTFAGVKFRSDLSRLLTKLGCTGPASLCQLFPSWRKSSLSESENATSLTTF

T3: mouse CXCR5 (mouse, UniProt Q04683 1-374)
T3 construct: also called mCXCR5
T3 sequence: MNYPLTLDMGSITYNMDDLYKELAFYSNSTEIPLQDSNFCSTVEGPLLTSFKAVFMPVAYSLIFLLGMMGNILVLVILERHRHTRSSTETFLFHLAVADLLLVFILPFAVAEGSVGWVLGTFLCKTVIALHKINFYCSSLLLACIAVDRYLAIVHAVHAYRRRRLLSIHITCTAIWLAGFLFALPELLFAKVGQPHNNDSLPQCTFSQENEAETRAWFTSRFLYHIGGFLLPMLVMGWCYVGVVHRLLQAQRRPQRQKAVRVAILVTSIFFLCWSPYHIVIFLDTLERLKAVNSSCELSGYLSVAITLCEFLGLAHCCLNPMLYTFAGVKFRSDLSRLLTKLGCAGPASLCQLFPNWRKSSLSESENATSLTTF


Legend:
human CXCR5 [1] = biological target: T1, human CXCR5; assay: cell-based or functional assay
cynomolgus monkey CXCR5 [2] = biological target: T2, cynomolgus monkey CXCR5; assay: cell-based or functional assay
human CXCR5 [3] = biological target: T1, human CXCR5; assay: flow cytometry, human PBMC B cells
Procedure, shortened: (§1)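 Human and cynomolgus PBMCs stained with 4-fold serial antibody dilutions (11 points from 5000 ng/mL) plus Fc block, 2 h on ice, then lineage markers and anti-human Ig secondary 30 min at 4 °C. gMFI of binding population read by flow cytometry; EC50 from sigmoidal fit of equilibrium binding curves.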

cynomolgus monkey CXCR5 [4] = biological target: T2, cynomolgus monkey CXCR5; assay: flow cytometry, cynomolgus PBMC B cells
Procedure, shortened: as §1

mouse CXCR5 [5] = biological target: T3, mouse CXCR5; assay: flow cytometry on cells expressing mouse CXCR5
human CXCR5 [6] = biological target: T1, human CXCR5; assay: FACS on cells expressing the CXCR5 construct
mouse CXCR5 [7] = biological target: T3, mouse CXCR5; assay: FACS on cells expressing the CXCR5 construct
XC251 = biological target: T4, XC251; assay: FACS on cells expressing the CXCR5 construct
T4 construct: whole, on cells; also called hCXCR5-mL3

XC252 = biological target: T5, XC252; assay: FACS on cells expressing the CXCR5 construct
T5 construct: whole, on cells; also called hCXCR5-mL2

XC253 = biological target: T6, XC253; assay: FACS on cells expressing the CXCR5 construct
T6 construct: whole, on cells; also called hCXCR5-mN

XC254 = biological target: T7, XC254; assay: FACS on cells expressing the CXCR5 construct
T7 construct: whole, on cells; also called hCXCR5-mL2-mL3

XC255 = biological target: T8, XC255; assay: FACS on cells expressing the CXCR5 construct
T8 construct: whole, on cells; also called hCXCR5-mN-mL3

XC256 = biological target: T9, XC256; assay: FACS on cells expressing the CXCR5 construct
T9 construct: whole, on cells; also called hCXCR5-mN-mL2

| ADCC Activity Average EC50, Human B Cells (human CXCR5 [1]) [pM] | ADCC Activity Average EC50, Human Tfh Cells (human CXCR5 [1]) [pM] | ADCC Activity Average EC50, NHP B Cells (cynomolgus monkey CXCR5 [2]) [pM] | EC50 (human CXCR5 [3]) [nM] | EC50 (cynomolgus monkey CXCR5 [4]) [pM] | binding result (mouse CXCR5 [5]) | GMFI (human CXCR5 [6]) [GMFI] | GMFI (mouse CXCR5 [7]) [GMFI] | GMFI (XC251) [GMFI] | GMFI (XC252) [GMFI] | GMFI (XC253) [GMFI] | GMFI (XC254) [GMFI] | GMFI (XC255) [GMFI] | GMFI (XC256) [GMFI] | ADCC Activity Average EC50, Human Tfh-like Cells (human CXCR5 [1]) [pM] | Binder |
| --- | --- | --- | --- | --- | --- | --- | --- | --- | --- | --- | --- | --- | --- | --- | --- |
| 564 | 1.55 | 115 | 0.0179 | 6.95 |  |  |  |  |  |  |  |  |  |  | Chimeric 11G2 (antibody, human IgG1, kappa, V domains shown, mouse V regions on human IgG1/kappa; also called 11G2 (chimeric)) VH: EVKLVESGGGLVQPGGSLRLSCATSGFTFTDFYMSWVRQPPGRALEWLGFIRNKANGYTTEYSASVKGRFTISRDNSQSILYLQMNTLRAGDSATYYCVRVYGSTLHYWGQGTILTVSS VL: DVVVTQSPDSLAVSLGQRATISCRASESVEYHGTSLMHWYQQKPGQPPKLLIYAASNVESGVPARFSGSGSGTDFSLNIHPVEEGDIAMYFCQQSRKVPWTFGGGTKLEIKR |
| 380 |  |  | 0.0656 |  | no binding | 117000 | 1180 | 13300 | 22400 | 1780 | 11400 | 1950 | 1970 |  | 2C9 (reference antibody) (antibody, human IgG1, kappa, V domains shown, fucosylated) VH: EVQLVESGGGLVKPGGSLRLSCAASGFTFSTNAMNWVRQAPGKGLERVARIRSKSNNYATYYADSVKDRFTISRDDSKNTLYLQMNSLKTEDTAVYYCVTMIPFAYWGQGTLVTVSS VL: not shown |
| 2.01 | 0.11 | 15.3 | 0.0066 | 1.32 | no binding | 139000 | 901 | 14600 | 21600 | 1220 | 11500 | 1320 | 1260 | 4.82 | Afucosyl humanized 11G2 154/155 (antibody, human IgG1, kappa, V domains shown, afucosylated Fc glycan (Asn297), also called afucosyl h11G2 XC154/XC155; afucosylated h11G2 VL XC154/VH XC155) VH: EVQLVESGGGLVQPGGSLRLSCAASGFTFTDFYMSWVRQAPGKGLEWVGFIRNKANGYTTEYSASVKGRFTISRDNAKNSLYLQMNSLRAEDTAVYYCARVYGSTLHYWGQGTLVTVSS VL: DIQMTQSPSSLSASVGDRVTITCRASESVEYHGTSLMHWYQQKPGKAPKLLIYAASNVESGVPSRFSGSGSGTDFTLTISSLQPEDFATYYCQQSRKVPWTFGQGTKVEIKR |
